# B1: mouse monoclonal antibody clone 1A8 (anti-DEFA5) [modified: Fc glycosylation, mainly the G1F glycoform (intact ESI-MS)] [mouse] / peptide No. 57 of the overlapping library, DEFA5 amino acids 61-75 (ARATCYCRTGRCATR) [human] (parent complex)
# chain 1: QVQLQQSGAELVRPGASVKMSCKALGYTFFDYEMHWMKQTPVYGLEWIGAIHPGSGDTAYNQKFKGKATLTADKSSNTAYMELSSLTSEDSAVYYCTREGTVVAPFDYWGQGTTLTVSS
# chain 2: DVLMTQTPLSLPVSLGDQASISCRSSQSIVHSNGNTYLEWYLQKPGQSPKLLINKVSNRFSGVPDRFSGSGSGTDFTLKISRVEAEDLGVYYCFQGSYVPYTFGGGTKLEIK
# chain 3: ARATCYCRTGRCATR
# Variants of: B1
# Experiment: indirect ELISA; parent: 2.6; read off a plot
row,Variant,response [OD450nm]
1,chain 3 ARATCYARTGRCATR,~1.2
2,chain 3 ARATCYCRTARCATR,~1.9
3,chain 3 ARATCYCATGRCATR,~1.8
4,chain 3 ARATCACRTGRCATR,~1.8
5,chain 3 ARATAYCRTGRCATR,~2
6,chain 3 AAATCYCRTGRCATR,~1.9
7,chain 3 ARATCYCRTGRCGTR,~1.8
8,chain 3 ARATCYCRTGRCATA,~2.6
9,chain 3 ARATCYCRAGRCATR,~1.9

# Other lines, results leading:
row,response [OD450nm],Variant
1,~2,chain 3 ARATCYCRTGRCAAR
2,~1.9,chain 3 ARAACYCRTGRCATR
3,~1.1,chain 3 ARATCYCRTGRAATR
4,~1.8,chain 3 ARGTCYCRTGRCATR
5,~0.07,chain 3 ARATCYCRTGACATR

# Variants of: B1
# Experiment: indirect ELISA; parent: 2.2; read off a plot
row,Variant,response [OD450nm]
1,chain 3 ARATCYCRTARCATR,~1.9
2,chain 3 ARATCYCATGRCATR,~1.8
3,chain 3 ARATCACRTGRCATR,~1.9
4,chain 3 ARATAYCRTGRCATR,~1.9
5,chain 3 AAATCYCRTGRCATR,~1.9
6,chain 3 ARATCYCRTGRCGTR,~1.8
7,chain 3 ARATCYCRTGRCATA,~2.2
8,chain 3 ARATCYCRAGRCATR,~1.7

# The next lines start with the values.
row,response [OD450nm],Variant
1,~1.7,chain 3 ARATCYCRTGRCAAR
2,~1.9,chain 3 ARAACYCRTGRCATR
3,~0.95,chain 3 ARATCYCRTGRAATR
4,~1.8,chain 3 ARGTCYCRTGRCATR
5,~0.07,chain 3 ARATCYCRTGACATR
